Legend:
[1] = biological target: 不同的HCV包膜糖蛋白 (on HCV pseudovirus, HCVpp); assay: cell-based or functional assay
[2] = biological target: HCV-E2蛋白 (Hepatitis C virus (HCV)); assay: SPR, BiaCore X-100; antibody captured by goat anti-human IgG on CM5 chip, HCV-E2 as analyte

B1: 全人源抗HCV的单克隆中和抗体TRN1001 (antibody, V domains shown)
VH: QVQLVQSGAEVKKPGSSVKVSCKVSGDRINNYAINWVRQAPGQGLEWMGRIIGIVGLANYAQKFQGRVTMTADKSTSTGYMELSTLKSDDTAMYYCATDNRILAAAPSHYSYSMDLWGPGTTVTVSS
VL: QSALTQPASVSGSPGQSITISCTGTSSDVGGDNYVSWYQQYTGKAPKVMIYDVSKRPSGVSNRFSGSKSGNTASLTISGLQAEDEADYYCCSYTSDNSYVFGSGTKVIVL
[1]
  Luciferase活性 (荧光值), HCVpp infection of Huh7 cells: 100%
[2]
  Kd: 20.3 nM
  koff: 0.00011 s⁻¹
  kon: 5440 M⁻¹ s⁻¹
